B1: recombinant HCMV pUL50 (His-tagged) (natural protein)
chain: MEMNKVLHQDLVQATRRILKLGPSELRVTDAGLICKNPNYSVCDAMLKTDTVYCVEYLLSYWESRTDHVPCFIFKNTGCAVSLCCFVRAPVKLVSPARHVGEFNVLKVNESLIVTLKDIEEIKPSAYGVLTKCVVRKSNSASVFNIELIAFGPENEGEYENLLRELYAKKAASTS
notes: also called His-tagged pUL50
B2: Hook peptide (acetylated pUL53 hook peptide, residues 59-87) (peptide)
peptide: Ac-LTLHDLHDIFREHPELELKYLNMMKMAIT-NH2
notes: source: synthetic peptide (Fmoc solid-phase synthesis, HPLC purified)

What was measured:
[1] = molecular target: T1, Fluo-NLS-CPP (fluoresceinylated; pUL53 NLS 18-27 joined to HIV-1 Tat 47-59) (human cytomegalovirus (HCMV) | human …); test: fluorescence polarisation; 25 nM N-terminally fluoresceinylated peptide; recombinant pUL50 in two-fold serial dilutions from 20 µM; 0.1 M PB, 150 mM NaCl, 1 mM TCEP, pH 7.2, 0.01% Tween 20; conditions: both partners purified
T1 construct: also called Fluo-NLS-CPP peptide; source: synthetic peptide (Fmoc solid-phase synthesis, HPLC purified)

[2] = molecular target: B1; test: ELISA; competition: pUL53 (1 µg/mL) coated on Immulon plates; peptide in serial dilutions from 10 µM together with His-tagged pUL50 (0.78 µg/mL) for 2.5 h; detection with anti-His-HRP; 0.1 M phosphate buffer pH 7.2, 0.1% BSA, 0.01% Tween 20; conditions: both partners purified

| Binder | Kd [1] [µM] | IC50 [2] [µM] |
| --- | --- | --- |
| B1 | > 10 | – |
| B2 | – | 0.125 |
